In patent US20070286859A1 (published 2007):
Like-named read-outs stand apart in the source and are kept apart here.

Key:
[1] = molecular target: T1, extracellular region of human V158 FcγRIIIa with C-terminal 6xHis-tag and GST-tag (human, UniProt P08637 17-208); assay: AlphaScreen competition
[2] = molecular target: extracellular region of human F158 FcγRIIIa with C-terminal 6xHis-tag and GST-tag (human, UniProt P08637 17-208); assay: SPR, receptor on chip
[3] = molecular target: T1, extracellular region of human V158 …; assay: SPR, receptor on chip
[4] = molecular target: T1, extracellular region of human V158 …; assay: AlphaScreen competition, fold vs WT alemtuzumab
[5] = molecular target: T1, extracellular region of human V158 …; assay: SPR, fold vs WT alemtuzumab
[6] = molecular target: T1, extracellular region of human V158 …; assay: AlphaScreen competition; remark: listed apart in the source
[7] = molecular target: T1, extracellular region of human V158 …; assay: AlphaScreen competition; remark: listed apart in the source

| Binder | Kd [2] | Kd [3] | Fold WT [5] | also measured |
| --- | --- | --- | --- | --- |
| N297D/A330Y/I332E alemtuzumab (antibody) chain 1: QVQLQESGPGLVRPSQTLSLTCTVSGFTFTDFYMNWVRQPPGRGLEWIGFIRDKAKGYTTEYNPSVKGRVTMLVDTSKNQFSLRLSSVTAADTAVYYCAREGHTAAPFDYWGQGSLVTVSSASTKGPSVFPLAPSSKSTSGGTAALGCLVKDYFPEPVTVSWNSGALTSGVHTFPAVLQSSGLYSLSSVVTVPSSSLGTQTYICNVNHKPSNTKVDKKVEPKSCDKTHTCPPCPAPELLGGPSVFLFPPKPKDTLMISRTPEVTCVVVDVSHEDPEVKFNWYVDGVEVHNAKTKPREEQYDSTYRVVSVLTVLHQDWLNGKEYKCKVSNKALPYPEEKTISKAKGQPREPQVYTLPPSRDELTKNQVSLTCLVKGFYPSDIAVEWESNGQPENNYKTTPPVLDSDGSFFLYSKLTVDKSRWQQGNVFSCSVMHEALHNHYTQKSLSLSPGK chain 2: not shown |  |  |  | affinity as a fraction of glycosylated WT alemtuzumab [1]: 0.4 fold |
| S239D/N297D/I332E alemtuzumab (antibody) chain 1: QVQLQESGPGLVRPSQTLSLTCTVSGFTFTDFYMNWVRQPPGRGLEWIGFIRDKAKGYTTEYNPSVKGRVTMLVDTSKNQFSLRLSSVTAADTAVYYCAREGHTAAPFDYWGQGSLVTVSSASTKGPSVFPLAPSSKSTSGGTAALGCLVKDYFPEPVTVSWNSGALTSGVHTFPAVLQSSGLYSLSSVVTVPSSSLGTQTYICNVNHKPSNTKVDKKVEPKSCDKTHTCPPCPAPELLGGPDVFLFPPKPKDTLMISRTPEVTCVVVDVSHEDPEVKFNWYVDGVEVHNAKTKPREEQYDSTYRVVSVLTVLHQDWLNGKEYKCKVSNKALPAPEEKTISKAKGQPREPQVYTLPPSRDELTKNQVSLTCLVKGFYPSDIAVEWESNGQPENNYKTTPPVLDSDGSFFLYSKLTVDKSRWQQGNVFSCSVMHEALHNHYTQKSLSLSPGK chain 2: not shown |  |  |  | affinity as a fraction of glycosylated WT alemtuzumab [1]: 0.8 fold |
| S298A/E333A/K334A alemtuzumab (antibody) chain 1: QVQLQESGPGLVRPSQTLSLTCTVSGFTFTDFYMNWVRQPPGRGLEWIGFIRDKAKGYTTEYNPSVKGRVTMLVDTSKNQFSLRLSSVTAADTAVYYCAREGHTAAPFDYWGQGSLVTVSSASTKGPSVFPLAPSSKSTSGGTAALGCLVKDYFPEPVTVSWNSGALTSGVHTFPAVLQSSGLYSLSSVVTVPSSSLGTQTYICNVNHKPSNTKVDKKVEPKSCDKTHTCPPCPAPELLGGPSVFLFPPKPKDTLMISRTPEVTCVVVDVSHEDPEVKFNWYVDGVEVHNAKTKPREEQYNATYRVVSVLTVLHQDWLNGKEYKCKVSNKALPAPIAATISKAKGQPREPQVYTLPPSRDELTKNQVSLTCLVKGFYPSDIAVEWESNGQPENNYKTTPPVLDSDGSFFLYSKLTVDKSRWQQGNVFSCSVMHEALHNHYTQKSLSLSPGK chain 2: not shown | 156 nM | 39 nM |  |  |
| T260H alemtuzumab (antibody) chain 1: not shown chain 2: not shown |  |  | 1.86 fold | Fold WT [4]: 1 fold |
| S239D alemtuzumab (antibody) chain 1: not shown chain 2: not shown |  |  |  | IC50 [6]: 0.8 nM |
| I332E alemtuzumab (antibody) chain 1: not shown chain 2: not shown | 72 nM | 31 nM |  |  |
| V264I alemtuzumab (antibody) chain 1: not shown chain 2: not shown |  | 64 nM |  |  |
| WT alemtuzumab (antibody) chain 1: not shown chain 2: not shown | 730 nM | 68 nM |  |  |
| V264I/I332E alemtuzumab (antibody) chain 1: not shown chain 2: not shown | 52 nM | 17 nM |  | IC50 [7]: 0.5 nM |
| E283H alemtuzumab (antibody) chain 1: not shown chain 2: not shown |  |  | 2.31 fold |  |
| V284E alemtuzumab (antibody) chain 1: not shown chain 2: not shown |  |  | 1.51 fold |  |
| E272R alemtuzumab (antibody) chain 1: not shown chain 2: not shown |  |  | 1.38 fold |  |
| S304T alemtuzumab (antibody) chain 1: not shown chain 2: not shown |  |  | 12.8 fold |  |
| S298A alemtuzumab (antibody) chain 1: not shown chain 2: not shown | 285 nM | 52 nM |  |  |
